According to US20050112690A1:

Molecular target: extra-domain B (ED-B) of fibronectin, as present in arteriosclerotic plaque of aorta specimens of WHHL rabbits (rabbit (WHHL rabbit aorta tissue)) (UniProt Q28749)
Assay: in vitro perfusion (Ussing chamber) of WHHL rabbit aorta specimens with radiolabeled scFv, 20 min at room temperature, gamma counting

Chain of UniProt Q28749 (Q28749 1221-1309 limits assumed): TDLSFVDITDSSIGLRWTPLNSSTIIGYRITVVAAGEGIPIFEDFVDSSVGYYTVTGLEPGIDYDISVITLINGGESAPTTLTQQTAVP

## 125I-labeled L19 derivative ZK212667 (L19) (scFv)
  rating factor (bound amount on arteriosclerotic vs non-arteriosclerotic aorta sections): 2.8
